Literature values in publication PMC4046138.
pKd: −log10 of the molar value.

Target: mesothelin (Homo sapiens) (UniProt Q13421)
UniProt Q13421, sequence (Q13421 other isoform, or with tags, fused parts or gaps): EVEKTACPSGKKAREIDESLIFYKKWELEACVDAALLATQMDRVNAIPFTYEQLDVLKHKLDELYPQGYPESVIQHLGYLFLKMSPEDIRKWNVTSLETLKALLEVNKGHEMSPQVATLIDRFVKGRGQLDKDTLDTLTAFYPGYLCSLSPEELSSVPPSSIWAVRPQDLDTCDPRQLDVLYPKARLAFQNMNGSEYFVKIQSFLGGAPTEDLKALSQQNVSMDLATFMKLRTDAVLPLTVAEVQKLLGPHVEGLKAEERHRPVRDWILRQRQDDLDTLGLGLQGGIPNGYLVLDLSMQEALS

For MUC16 (from UniProt Q8WXI7), the pKd is given as 8.30.
